Substitutions are numbered along the chain they refer to.
B1: humanized scFv 16-22-H05-sc02 (STR, structural graft) (scFv)
scFv: MDIQMTQSPSSLSASVGDRVTIKCQASQSIFSGLAWYQQKPGKAPKLLIYGASKLASGVPSRFSGSGSGTEFTLTISGLQPADFATYYCQSYYYSSSSSDGSYAFGGGTKLTVLGGGGGSGGGGSGGGGSGGGGSEVQLVESGGGLVQPGGSLRLSCKASGIDFNNYGIGWVRQAPGKGLEWITYIYPGFAITNFANSVKGRFTISSDNSKNTVYLQMNSLRAEDTAVYYCARDPVYATSSGYFDLWGQGTLVTVSS
notes: also called 16-22-H5-sc02; 16-22-H04-sc02 [sic]
B2: humanized scFv 16-22-H05-sc04 (CDR/STR) (scFv)
scFv: B1 scFv with K23T
notes: also called 16-22-05-sc04
B3: recombinant human TNFβ (ligand, UniProt P01374 35-205, looked up)
chain: LPGVGLTPSAAQTARQHPKMHLAHSTLKPAAHLIGDPSKQNSLLWRANTDRAFLQDGFSLSNNSLLVPTSGIYFVYSQVVFSGKAYSPKATSSPLYLAHEVQLFSSQYPFHVPLLSSQKMVYPGLQEPWLHSMYHGAAFQLTQGDQLSTHTDGIPHLVLSPSTVFFGAFAL

Legend:
[1] = target: T1, recombinant human TNFα (human, UniProt P01375 77-233); assay: inhibition ELISA, blocking of biotinylated TNFα binding to coated TNFRI-Fc
T1 construct: also called tumor necrosis factor alpha; TNFαtrimer
Text: For the first inhibition ELISA, the extracellular domain of TNFRI fused to the Fc region of human IgG (R&D Systems, Cat. No. 372-RI) was coated on a 96-well Maxisorp ELISA at a concentration of 0.5 pg/ml. […] All subsequent steps were identical for both assays.

[2] = target: T1, recombinant human TNFα; assay: cell-based or functional assay
[3] = target: B2; assay: competition ELISA: unlabeled TNFβ against biotinylated TNFα on coated scFv
Description: (§1) For this purpose, the scFvs were coated on a 96-well Maxisorp ELISA plate at a concentration of 1 pg/ml. […] To control precision of the response, the dose-response curves were analyzed in duplicate.

[4] = target: B1; assay: as above
Description: as §1

T1 sequence (P01375 77-233 limits assumed): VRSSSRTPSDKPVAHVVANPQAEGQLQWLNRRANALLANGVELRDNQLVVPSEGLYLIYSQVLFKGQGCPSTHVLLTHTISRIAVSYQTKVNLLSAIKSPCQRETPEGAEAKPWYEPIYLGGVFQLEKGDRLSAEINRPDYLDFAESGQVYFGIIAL

B1 was tested, and the “rel. IC50 (IC50 Infliximab/IC50 scFv, ng/mL)” value [1] was 3.5 ratio, the “rel. IC90 (IC90 Infliximab/IC90 scFv, ng/mL)” value [1] was 2.4 ratio and the “L929 assay, rel. IC50” value [2] was 13.1 ratio IC50 Infliximab (ng/ml)/IC50 scFv (ng/mL). The “L929 assay, rel. IC90” value [2] was 12.6 ratio IC90 Infliximab (ng/ml)/IC90 scFv (ng/mL).

B2 was tested, and the “rel. IC50 (IC50 Infliximab/IC50 scFv, ng/mL)” value [1] was 2.8 ratio, the “rel. IC90 (IC90 Infliximab/IC90 scFv, ng/mL)” value [1] was 2.1 ratio and the “L929 assay, rel. IC50” value [2] was 14.6 ratio IC50 Infliximab (ng/ml)/IC50 scFv (ng/mL). For the same binder, the “L929 assay, rel. IC90” value [2] was 13.1 ratio IC90 Infliximab (ng/ml)/IC90 scFv (ng/mL).

B3 was tested, and the IC50 [3] was over 1.25 ng/mL and the IC50 [4] was over 1.25 ng/mL.

Reference: patent US20230279091A1 (published 2023)
